From patent US20140162285A1, “Methods of Modulating Vesicular Trafficking” (The General Hospital Corporation, priority 2009, published 2014)
One block for each molecule: values may come before it. Peptide text beside a SMILES is read from it. * marks the point of attachment. Biotin = O=C1N[C@H]2[C@H](CS[C@H]2CCCCC(=O)*)N1

What was measured:
[1] = molecular target: T1, Sec7-domain of ARNO (Homo sapiens, UniProt Q99418); test: surface plasmon resonance (BIAcore T100) kinetic analysis a2N-01 peptide/Sec7-domain; assay type: binding; details: ΔGbind=RTlnKD
T1 construct: iii) 61-252aa, Sec7 domain; GST (N, cleaved yes); made in house; host or cells: E. coli BL21(DE3)
T1 sequence (Q99418 61-252): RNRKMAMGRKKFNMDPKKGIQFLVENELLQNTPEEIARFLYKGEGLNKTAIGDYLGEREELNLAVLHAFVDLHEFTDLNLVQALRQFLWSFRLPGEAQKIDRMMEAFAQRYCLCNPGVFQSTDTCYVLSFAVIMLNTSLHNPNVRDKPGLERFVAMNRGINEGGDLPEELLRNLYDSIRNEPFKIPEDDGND
Text: (§1) 6A, Kinetic analysis and estimation of a dissociation constant (KD) for interaction between full-length a2N(wt) and ARNO(wt) proteins. Sensorgrams for the binding of recombinant a2N-6His immobilized as ligand on the sensor chip, with various concentrations of 6His-ARNO as analyte are shown as follows. The responses on the sensorgram are designated in resonance units (RU). […] 6B, Kinetic analysis and estimation of KD for interaction between a2N-01 peptide and Sec7-domain of ARNO. Sensorgrams for the binding of a2N-01 peptide immobilized as ligand on the sensor chip, with various concentrations of Sec7-domain as analyte are shown as follows. The responses on the sensorgram are designated in resonance units (RU).
All reagents, including buffers, sensor chips and the amine coupling kit, were obtained from GE Healthcare. […] Dissociation of the complexes was monitored for 10 min, and then the regeneration of the sensor surfaces was performed using 0.05% SDS with 1-min injection in the running buffer at a 20 μl/min flow rate. […] The dissociation constant (KD) was determined from the kon/koff values. To estimate affinity of interaction the corresponding free energy of binding ΔGbind=RTlnKD was calculated as previously described (Marles et al., Mol Cell 14 (2004) 813-823). […]

[2] = molecular target: T2, ARNO(wt) (Homo sapiens, UniProt Q99418); test: surface plasmon resonance (BIAcore T100) kinetic analysis a2N(wt)/ARNO(wt); assay type: binding
T2 construct: i) 1-400aa, full length ARNO(wt); GST (N); made in house; host or cells: E. coli BL21(DE3)
T2 sequence (Q99418 1-400): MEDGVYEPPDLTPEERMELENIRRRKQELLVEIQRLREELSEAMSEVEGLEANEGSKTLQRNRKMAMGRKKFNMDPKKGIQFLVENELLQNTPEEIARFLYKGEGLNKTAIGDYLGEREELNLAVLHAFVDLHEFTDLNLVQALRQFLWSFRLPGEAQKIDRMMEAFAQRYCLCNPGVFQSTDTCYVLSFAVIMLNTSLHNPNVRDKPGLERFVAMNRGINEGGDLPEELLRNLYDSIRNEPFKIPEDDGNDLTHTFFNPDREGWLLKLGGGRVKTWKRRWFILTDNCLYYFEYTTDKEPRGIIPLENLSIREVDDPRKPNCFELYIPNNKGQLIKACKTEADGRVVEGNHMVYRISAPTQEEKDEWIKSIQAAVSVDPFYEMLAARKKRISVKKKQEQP
Text: as §1
All reagents, including buffers, sensor chips and the amine coupling kit, were obtained from GE Healthcare. For kinetic analysis of the binding of ARNO(wt) with a2N(wt), purified 6His-a2N (5 μg/ml) in 10 mM sodium acetate (pH 4.0) was immobilized at 80 response units (RU) on a CM4 sensor chip using an amine coupling kit according to the manufacturer's instructions. The same kit was used to perform blank immobilization to create a reference surface on the same chip. Samples of purified GST-ARNO(wt) at concentrations ranging from 0.25-4 μM were injected for 6 min over active and reference surfaces at a flow rate of 30 μl/min in NBS-EP, 1 mM DTT running buffer (10 mM Hepes, pH 7.4, 150 mM NaCl, 3 mM EDTA, 0.05% Surfactant P20, 1 mM DTT). For kinetic analysis of the binding of the ARNO Sec7-domain with a2N-01 peptide, neutravidin (10 μg/ml) in 10 mM sodium acetate (pH 5.0) was immobilized at about 1200 RU on two surfaces of a CM4 sensor chip using an amine coupling kit. Following that, biotinylated a2N-01 peptide (50 RU) and amine-PEG3-biotin (25 RU) were irreversibly captured by neutravidin to create active and a reference surfaces, respectively. Purified Sec7-6His recombinant protein was injected for 3.5 min over active and reference surfaces at concentrations ranging from 0.05-1 μM and a flow rate of 100 μl/min in NBS-EP, 1 mM DTT running buffer. Dissociation of the complexes was monitored for 10 min, and then the regeneration of the sensor surfaces was performed using 0.05% SDS with 1-min injection in the running buffer at a 20 μl/min flow rate. […] The dissociation constant (KD) was determined from the kon/koff values. To estimate affinity of interaction the corresponding free energy of binding ΔGbind=RTlnKD was calculated as previously described (Marles et al., Mol Cell 14 (2004) 813-823).
Specific concentration-dependent responses were obtained for both interactions. […] Calculated free energies for a2N(wt)/ARNO(wt) and a2N-01/Sec7 binding are −8.86 kcal mol^−1 and −8.81 kcal mol^−1, respectively (Marles et al., Mol Cell 14 (2004) 813-823). […]

[3] = a2N immobilized, ARNO as analyte, 25° C.

- calculated free energy of binding [1]: -8.81 kcal/mol
Molecule: CSCC[C@H](NC(=O)CCCC[C@@H]1SC[C@@H]2NC(=O)N[C@@H]21)C(=O)NCC(=O)N[C@@H](CO)C(=O)N[C@@H](CC(C)C)C(=O)N[C@@H](Cc1ccccc1)C(=O)N[C@@H](CCCNC(=N)N)C(=O)N[C@@H](CO)C(=O)N[C@@H](CCC(=O)O)C(=O)N[C@@H](CO)C(=O)N[C@@H](CCSC)C(=O)N[C@@H](CS)C(=O)N[C@@H](CC(C)C)C(=O)N[C@@H](C)C(=O)N[C@@H](CCC(N)=O)C(=O)N[C@@H](CC(C)C)C(=O)N[C@@H](Cc1ccccc1)C(=O)N[C@@H](CC(C)C)C(=O)N[C@@H](CS)C(=O)O [a2N-01, Bio-MGSLFRSE SMCLAQLFL-Cys] (Biotin-MGSLFRSESMCLAQLFLC-OH; N-terminus and C-terminus assumed)

- Kd ([2]; a2N immobilized on sensor chip, ARNO as analyte, 25° C., bivalent analyte isotherm, read-out: dissociation constant KD): 313 nM
- association rate constant (kon) [2, 3]: 4.77×10^3 M^−1S^−1
- dissociation rate constant (koff) [2, 3]: 14.95×10^−4 S^−1
- calculated free energy of binding ([2]; ΔGbind=RTlnKD): -8.86 kcal/mol
B1: a2N: recombinant N-terminal cytosolic tail, amino acid residues 1-402 of mouse V-ATPase a2-subunit (protein)
chain: MGSLFRSESMCLAQLFLQSGTAYECLSALGEKGLVQFRDLNQNVSSFQRKFVGEVKRCEELERILVYLVQEITRADIPLPEGEASPPAPPLKHVLEMQEQLQKLEVELREVTKNKEKLRKNLLELVEYTHMLRVTKTFLKRNVEFEPTYEEFPALENDSLLDYSCMQRLGAKLGFVSGLIQQGRVEAFERMLWRACKGYTIVTYAELDECLEDPETGEVIKWYVFLISFWGEQIGHKVKKICDCYHCHIYPYPNTAEERREIQEGLNTRIQDLYTVLHKTEDYLRQVLCKAAESVCSRVVQVRKMKAIYHMLNMCSFDVTNKCLIAEVWCPEVDLPGLRRALEEGSRESGATIPSFMNTIPTKETPPTLIRTNKFTEGFQNIVDAYGVGSYREVNPALFTII
modifications: left off: small tags and cut ends
notes: recombinant N-terminal cytosolic tail, amino acid residues 1-402 of mouse V-ATPase a2-subunit
